Legend:
[1] = target: T1, human CD39 on cells (human, UniProt P49961 1-510); assay: flow cytometry, 100 nM IgG, hCD39-CHO cells; MFI ratio to parental CHO
T1 construct: One molecule for all cells that carry human CD39; the cell is named under assay; also called hCD39; cellular CD39
T1 sequence: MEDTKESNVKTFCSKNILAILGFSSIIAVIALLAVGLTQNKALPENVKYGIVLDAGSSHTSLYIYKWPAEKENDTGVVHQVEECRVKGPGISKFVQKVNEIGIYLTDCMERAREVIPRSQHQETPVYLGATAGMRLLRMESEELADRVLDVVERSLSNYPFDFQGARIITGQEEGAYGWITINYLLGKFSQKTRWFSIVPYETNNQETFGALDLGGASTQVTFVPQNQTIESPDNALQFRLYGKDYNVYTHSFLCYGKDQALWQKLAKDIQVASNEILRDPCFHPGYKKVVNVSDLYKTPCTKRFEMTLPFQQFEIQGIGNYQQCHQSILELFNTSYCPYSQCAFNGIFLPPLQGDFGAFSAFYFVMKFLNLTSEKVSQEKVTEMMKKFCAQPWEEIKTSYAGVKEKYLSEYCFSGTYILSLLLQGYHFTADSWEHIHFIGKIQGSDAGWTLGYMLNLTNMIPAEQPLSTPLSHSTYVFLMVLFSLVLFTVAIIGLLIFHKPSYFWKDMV
Description: (§1) 100 nanomolar IgGs (each antibody is indicated as a unique clone number in the FIG.) were incubated at […] 30 minutes on ice in phosphate buffered saline (PBS) with parental CHO cells or CHO cells engineered to express either human or cynomolgus macaque (Macaca fascicularis) CD39 (CHO CD39 cells). Cells were then washed with ice cold PBS and incubated with a fluorescently labeled goat-anti-human IgG for 20 minutes on ice. Cells were washed and resuspended in ice cold PBS prior to analysis by flow cytrometry.

[2] = target: T2, cynomolgus macaque (Macaca fascicularis) CD39 on cells (cynomolgus macaque (Macaca fascicularis), UniProt P49961 7-510 (human entry)); assay: flow cytometry, 100 nM IgG, cCD39-CHO cells; MFI ratio to parental CHO
T2 construct: CHO cells engineered to express cyno CD39, or primary cyno B cells and monocytes; also called cyno CD39; cCD39
T2 chain: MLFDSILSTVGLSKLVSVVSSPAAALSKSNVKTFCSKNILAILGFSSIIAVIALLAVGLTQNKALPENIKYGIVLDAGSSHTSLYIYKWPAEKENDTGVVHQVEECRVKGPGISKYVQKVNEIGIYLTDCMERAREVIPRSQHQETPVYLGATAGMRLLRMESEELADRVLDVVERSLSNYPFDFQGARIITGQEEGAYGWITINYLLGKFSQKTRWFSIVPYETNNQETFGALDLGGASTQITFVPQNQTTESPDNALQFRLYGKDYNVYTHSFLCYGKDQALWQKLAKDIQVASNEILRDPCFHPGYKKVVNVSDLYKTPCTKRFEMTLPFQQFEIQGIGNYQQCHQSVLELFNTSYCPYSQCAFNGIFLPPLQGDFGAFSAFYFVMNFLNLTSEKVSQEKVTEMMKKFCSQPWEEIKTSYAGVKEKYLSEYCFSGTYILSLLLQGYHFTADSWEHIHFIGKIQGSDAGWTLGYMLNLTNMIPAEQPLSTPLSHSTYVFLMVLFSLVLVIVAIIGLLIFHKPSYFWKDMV
Description: as §1

[3] = target: T3, rhCD39-ECD-His (R&D Systems) (human, UniProt P49961 38-478); assay: BLI (Octet), IgG on anti-human Fc sensor, rhCD39-ECD-His 10-300 nM, 1:1 fit
T3 construct: Bought protein; that entry runs on through the C-terminal transmembrane and cytoplasmic residues; also called recombinant human CD39 extracellular domain; soluble recombinant human CD39 (ENTDP1) ECD; not shown: His tag
T3 sequence: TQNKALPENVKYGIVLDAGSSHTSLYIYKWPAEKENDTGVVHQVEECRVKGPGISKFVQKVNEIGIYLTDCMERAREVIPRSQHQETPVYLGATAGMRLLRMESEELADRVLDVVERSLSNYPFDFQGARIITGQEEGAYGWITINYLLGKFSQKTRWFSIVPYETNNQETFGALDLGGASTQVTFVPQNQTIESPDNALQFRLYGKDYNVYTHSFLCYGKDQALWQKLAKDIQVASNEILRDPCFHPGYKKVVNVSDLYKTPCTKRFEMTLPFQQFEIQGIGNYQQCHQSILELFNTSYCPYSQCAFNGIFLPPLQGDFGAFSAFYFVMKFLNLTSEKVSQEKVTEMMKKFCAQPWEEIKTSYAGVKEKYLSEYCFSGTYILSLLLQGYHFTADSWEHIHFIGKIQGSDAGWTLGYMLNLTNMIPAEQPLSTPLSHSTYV
Description: The kinetic data was globally fit with a simple 1:1 Langmuir binding model to yield on-rate (kon) and off-rate (koff) values. The equilibrium dissociation constants (KD) were calculated from the kon and koff values.
Binding kinetics were measured using the Octet Red96 system (ForteBio) at 25° C. in running buffer (1× Pall ForteBio Kinetics Buffer diluted into PBS or Tris pH 7.4). […] After a short baseline step in running buffer, the sensors were exposed to varying concentrations (10-300 nM) of rhCD39-ECD-His (R&D Systems) for the association step. Dissociation of the complex was monitored upon exposure of the sensors to running buffer once again. Data was processed using ForteBio Octet software with baseline subtraction, global fit and 1:1 binding model to obtain association and dissociation rates. KD was calculated from the ratio of kd to kₐ.

Binder | Cell Binding (FOB) [1] [FOB] | Cell Binding (FOB) [2] [FOB] | Kd [3] [nM] | koff [3] [s⁻¹] | kon [3] [M⁻¹ s⁻¹]
27549 (antibody, V domains shown) VH: QVQLVESGGGVVQPGRSLRLSCAASGFTFSSYGMNWVRQAPGKGLEWVAVIWYDGSNKYYADSVKGRFTISRDNSKNTLYLQMNSLRAEDTAVYYCARDLGGYSYGEPYYYYYGMDVWGQGTTVTVSS VL: EIVLTQSPGTLSLSPGERATLSCRASQSVSSDYLAWYQQKPGQAPRLLIYGASSRATGIPDRFSGSGSGTDFTLTISRLEPEDFAVYYCQQAHSSPYTFGGGTKVEIKR | 822 | 566 |  |  | 
27568 (antibody, V domains shown) VH: QVQLVQSGAEVKKPGSSVKVPCKASGGTFSSYAISWVRQAPEQGLEWMGSIIPIFGTANYAQKFQGRVTITADESTSTAYMELSSLRSEDTAVYYCAGESGGYRDHKLDVWGQGTVVTVSS VL: EIVLTQSPATLSLSPGERATLSCRASQSVSSYLAWYQQKPGQAPRLLIYDASNRATGIPARFSGSGSGTDFTLTISSLEPEDFAVYYCQQSVFWPITFGGGTKVEIKR | 267 | 260 | 173 | 0.047 | 272000
27535 (antibody, V domains shown) VH: QVQLVQSGAEVKKPGSSVKVSCKASGGTFSSYAISWVRQAPGQGLEWMGGIIPIFGTANYAQKFQGRVTITADESTSTAYMELSSLRSEDTAVYYCARDTPRWRYHYFDYWGQGTLVTVSS VL: EIVLTQSPATLSLSPGERATLSCRASQSVSSYLAWYQQKPGQAPRLLIYDASKRATGIPARFSGSGSGTDFTLTISSLEPEDFAVYYCQQVLNYPLTFGGGTKVEIKR | 301 | 738 |  |  | 
27579 (antibody, V domains shown) VH: QVQLVQSGAEVKEPGASVKVSCKAPGYTFTSYYMHWVRQAPGQGLEWMGVINPSGGSTSYAQKFQGRVTMTRDTSTSTVYMELSSLRSEDTAVYYCARGKREGGTEYLRHWGQGTLVTVSS VL: EIVLTQSPGTLSLSPGERATLSCRASQSVSSSYLAWYQQKPGQAPRLLIYGASSRATGIPDRFSGSGSGTDFTLTISRLEPEDFAVYYCQQYHSYITFGGGTKVEIK | 1950 | 2670 |  |  | 
31418 (antibody, V domains shown) VH: QVQLVQSGAEVKKPGASVKVSCKASGYTFKSYEMHWVRQAPGQGLEWMGRINPSGGSTWYAQKFQGRVTMTRDTSTSTVYMELSSLRSEDTAVYYCARGKREGGTEYLRHWGQGTLVTVSS VL: EIVLTQSPGTLSLSPGERATLSCRASQSVSSSYLAWYQQKPGQAPRLLIYGASSRATGIPDRFSGSGSGTDFTLTISRLEPEDFAVYYCQQYYFYITFGGGTKVEIKR | 1080 | 3180 |  |  | 
31414 (antibody, human IgG4 S228P, kappa, V domains shown) VH: QVQLVQSGAEVKKPGASVKVSCKASGYTFKSYEMHWVRQAPGQGLEWMGRINPSVGSTWYAQKFQGRVTMTRDTSTSTVYMELSSLRSEDTAVYYCARGKREGGTEYLRNWGQGTLVTVSS VL: EIVLTQSPGTLSLSPGERATLSCRASQSVSSSYLAWYQQKPGQAPRLLIYGASSRATGIPDRFSGSGSGTDFTLTISRLEPEDFAVYYCQQYHSYITFGGGTKVEIKR | 1240 | 3570 |  |  | 
31891 (antibody, V domains shown) VH: QVQLVQSGAEVKKPGASVKVSCKASGYIFKSYEMHWVRQAPGQGLEWMGRINPSVGSTWYAQKFQGRVTMTRDTSTSTVYMELSSLRSEDTAVYYCARGKREGGTEYLRVWGQGTLVTVSS VL: EIVLTQSPGTLSLSPGERATLSCRASQSVSSSYLAWYQQKPGQAPRLLIYYASSRAYGIPDRFSGSGSGTDFTLTISRLEPEDFAVYYCQQYHNAITFGGGTKVEIKR | 1030 | 4650 |  |  | 
29872 (antibody, V domains shown) VH: QVQLVQSGAEVKKPGASVKVSCKASGYTFKSYEMHWVRQAPGQGLEWMGRINPSVGSTWYAQKFQGRVTMTRDTSTSTVYMELSSLRSEDTAVYYCARGKREGGTEYLRHWGQGTLVTVSS VL: EIVLTQSPGTLSLSPGERATLSCRASQSVSSSYLAWYQQKPGQAPRLLIYGASSRATGIPDRFSGSGSGTDFTLTISRLEPEDFAVYYCQQYHSYITFGGGTKVEIK | 1450 | 4190 |  |  | 
31429 (antibody, V domains shown) VH: QVQLVQSGAEVKKPGASVKVSCKASGYTFVSYFMHWVRQAPGQGLEWMGSINPRGGSTSYAQKFQGRVTMTRDTSTSTVYMELSSLRSEDTAVYYCARGKREGGTEYLRHWGQGTLVTVSS VL: EIVLTQSPGTLSLSPGERATLSCRASQYVSSSYLAWYQQKPGQAPRLLIYYASNRATGIPDRFSGSGSGTDFTLTISRLEPEDFAVYYCQQYHSGITFGGGTKVEIK | 1290 | 3800 |  |  | 
31415 (antibody, V domains shown) VH: QVQLVQSGAEVKKPGASVKVSCKASGYTFTSYQMHWVRQAPGQGLEWMGRINPSGGSTWYAQKFQGRVTMTRDTSTSTVYMELSSLRSEDTAVYYCARGKREGGTEYLRSWGQGTLVTVSS VL: EIVLTQSPGTLSLSPGERATLSCRASQSVSSSYLAWYQQKPGQAPRLLIYGASSRATGIPDRFSGSGSGTDFTLTISRLEPEDFAVYYCQQYHSYITFGGGTKVEIKR | 1170 | 3360 |  |  | 
31430 (antibody, V domains shown) VH: QVQLVQSGAEVKKPGASVKVSCKASGYTFKSYEMHWVRQAPGQGLEWMGRINPSGGSTWYAQKFQGRVTMTRDTSTSTVYMELSSLRSEDTAVYYCARGKREGGTEYLRHWGQGTLVTVSS VL: EIVLTQSPGTLSLSPGERATLSCEASQSVSYSYLAWYQQKPGQAPRLLIYGASSRANGIPDRFSGSGSGTDFTLTISRLEPEDFAVYYCQQYHSALTFGGGTKVEIKR | 1220 | 3570 |  |  | 
31431 (antibody, V domains shown) VH: QVQLVQSGAEVKKPGASVKVSCKASGYTFTSYQMHWVRQAPGQGLEWMGRINPSGGSTWYAQKFQGRVTMTRDTSTSTVYMELSSLRSEDTAVYYCARGKREGGTEYLRHWGQGTLVTVSS VL: EIVLTQSPGTLSLSPGERATLSCRASQSVASSYLAWYQQKPGQAPRLLIYGASNRHTGIPDRFSGSGSGTDFTLTISRLEPEDFAVYYCQQYHGGITFGGGTKVEIK | 1240 | 3530 |  |  | 
27536 (antibody, V domains shown) VH: QVQLVQSGAEVKKPGSSVKVSCKASGGTFSNYAISWVRQAPGQGLEWMGGIIPIFGTANYAQKFQGRVTITADESTSTAYMELSSLRSEDTAVYYCARDTLYSSGAYYGYNVWGQGTMVTVSS VL: not shown | 89 | 113 | 114 | 0.00751 | 65900
